Positions count from the first letter of the chain named. In names and notes the source's numbering stands.

This data set concerns the molecule itself. As to the kind of experiment: focused ion beam electron microscopy.

B1: His-tagged wild type PsmA (natural protein, Saccharolobus islandicus REY15A, UniProt C3MQ43 1-241, looked up)
chain: MAFGPAAMGYDRAITIFSPDGSLYQVDYAFEAVKKGWTAIGIKSKSGVVIASEKRKAQSLLDVDSIEKVFLIDDHVGCSFAGLASDGRVLIDYARNIALQHRLIYDEPVSIDYLTKSVADVKQMYTQHGGVRPFGVALVIAGIDKSVPKLYMTEPSGQYMPYQAVAIGQGYYTATEFLEKNYKEDLTIEDTILLALKALSATLKPNEKLTPNTVEIGYASTQTGLFLKMTSEDKNMYLQKL
One may read the stoichiometry N as the number of molecules, sites or subunits per partner or assembly. B1: the “stoichiometry N” value is 14.

B2: His-tagged PsmA S200D (natural protein, Saccharolobus islandicus REY15A, UniProt C3MQ43 1-241, looked up)
chain: B1 chain with S200D
Regarding B2, the “stoichiometry N” value came to 14.

B3: His-tagged PsmA T213E (natural protein, Saccharolobus islandicus REY15A, UniProt C3MQ43 1-241, looked up)
chain: B1 chain with T213E
For the protein B3, the “stoichiometry N” value worked out at 14.
